Laboratory results taken from PMC4046141, “Exploring the evolutionary route of the acquisition of betaine aldehyde dehydrogenase activity by plant ALDH10 enzymes: implications for the synthesis of the osmoprotectant glycine betaine” (BMC Plant Biology, 2014).
Substitutions are numbered along the chain they refer to. In names and notes the source's numbering stands.

B1: SoBADH (Spinacia oleracea; A441F) (protein)
chain: MAFPIPARQLFIDGEWREPIKKNRIPVINPSTEEIIGDIPAATAEDVEVAVVAARRAFRRNNWSATSGAHRATYLRAIAAKITEKKDHFVKLETIDSGKPFDEAVLDIDDVASCFEYFAGQAEALDGKQKAPVTLPMERFKSHVLRQPLGVVGLISPWNYPLLMATWKIAPALAAGCTAVLKPSELASVTCLEFGEVCNEVGLPPGVLNILTGLGPDAGAPLVSHPDVDKIAFTGSSATGSKVMASAAQLVKPVTLELGGKSPIVVFEDVDIDKVVEWTIFGCFWTNGQICSATSRLLVHESIAAEFVDKLVKWTKNIKISDPFEEGCRLGPVISKGQYDKIMKFISTAKSEGATILYGGSRPEHLKKGYYIEPTIVTDISTSMQIWKEEVFGPVLCVKTFSSEDEAIALANDTEYGLAAAVFSNDLERCERITKALEVGFVWVNCSQPCFVQAPWGGIKRSGFGRELGEWGIQNYLNIKQVTQDISDEPWGWYKSP
notes: native homodimer
B2: SoBADH (Spinacia oleracea; A441V) (protein)
chain: B1 chain with F441V
notes: native homodimer
B3: SoBADH (Spinacia oleracea; A441T) (protein)
chain: B1 chain with F441T
notes: native homodimer
B4: SoBADH (Spinacia oleracea; A441S) (protein)
chain: B1 chain with F441S
notes: native homodimer
B5: SoBADH (Spinacia oleracea) (protein)
chain: B1 chain with F441A
notes: native homodimer

substrate: NCCC=O; assay: spectrophotometric initial velocity, fit to substrate-inhibition equation; format: biochemical, Spinacia oleracea; conditions: 0.2 mM NAD+, 50 mM HEPES-KOH pH 8.0, 0.1 mM EDTA, 30 °C, apparent
Source text: spectrophotometric initial velocity, fit to substrate-inhibition equation on SoBADH

**Q.** How did the Km turn out when B1 was run?
**A.** 3.7 ± 0.0 µM

**Q.** What about the kcat of the same protein?
**A.** 0.34 ± 0.04 s⁻¹

**Q.** What about the kcat/Km of the same protein?
**A.** 92000 ± 11000 M⁻¹ s⁻¹

**Q.** How did the Km turn out when B2 was run?
**A.** 1.1 ± 0.3 µM

**Q.** What about the kcat of the same protein?
**A.** 0.52 ± 0.1 s⁻¹

**Q.** And the kcat/Km?
**A.** 473000 ± 216000 M⁻¹ s⁻¹

**Q.** For B3, which Km is on record?
**A.** 4.6 ± 0.5 µM

**Q.** And the kcat?
**A.** 1.5 ± 0.12 s⁻¹

**Q.** And the kcat/Km?
**A.** 326000 ± 13000 M⁻¹ s⁻¹

**Q.** How did the Km turn out when B4 was run?
**A.** 2.0 ± 0.5 µM

**Q.** What about the kcat of the same protein?
**A.** 1.12 s⁻¹

**Q.** What about the kcat/Km of the same protein?
**A.** 550000 ± 142000 M⁻¹ s⁻¹

**Q.** How did the Km turn out when B5 was run?
**A.** 3.9 ± 0.1 µM

**Q.** What about the kcat of the same protein?
**A.** 0.99 ± 0.04 s⁻¹

**Q.** And the kcat/Km?
**A.** 256000 ± 5000 M⁻¹ s⁻¹

substrate: C[N+](C)(C)CC=O; assay: purified protein; conditions: 0.2 mM NAD+, 50 mM HEPES-KOH pH 8.0, 0.1 mM EDTA, 30 °C, apparent

**Q.** How did the Km turn out when B1 was run?
**A.** 605 ± 26 µM

**Q.** What about the kcat of the same protein?
**A.** 0.29 s⁻¹

**Q.** And the kcat/Km?
**A.** 480 M⁻¹ s⁻¹

**Q.** Which Km does the source give for B2 here?
**A.** 512 ± 79 µM

**Q.** And the kcat?
**A.** 0.54 s⁻¹

**Q.** What about the kcat/Km of the same protein?
**A.** 1100 M⁻¹ s⁻¹

**Q.** With B3 as the protein, how does the Km read?
**A.** 180 ± 6 µM

**Q.** What about the kcat of the same protein?
**A.** 2.64 s⁻¹

**Q.** And the kcat/Km?
**A.** 15000 M⁻¹ s⁻¹

**Q.** Which results are given for B4?
**A.** Km: 119 ± 8 µM; kcat: 3.29 s⁻¹; kcat/Km: 28000 M⁻¹ s⁻¹

**Q.** B5 was tested. Which Km did it give?
**A.** 98 ± 15 µM

**Q.** What about the kcat of the same protein?
**A.** 3.36 s⁻¹

**Q.** What about the kcat/Km of the same protein?
**A.** 35000 M⁻¹ s⁻¹

substrate: NC(=O)c1ccc[n+]([C@@H]2O[C@H](COP(=O)(O)OP(=O)(O)OC[C@H]3O[C@@H](n4cnc5c(N)ncnc54)[C@H](O)[C@@H]3O)[C@@H](O)[C@H]2O)c1; assay: spectrophotometric initial velocity, Michaelis-Menten fit; format: biochemical, Spinacia oleracea; conditions: fixed BAL at least 10x its Km, 50 mM HEPES-KOH pH 8.0, 0.1 mM EDTA, 30 °C, apparent, varied: cofactor
Source text: spectrophotometric initial velocity, Michaelis-Menten fit on SoBADH

**Q.** Which results are given for B2?
**A.** Km: 6.4 ± 0.5 µM; kcat: 0.51 s⁻¹; kcat/Km: 80000 ± 5000 M⁻¹ s⁻¹

**Q.** What does the source list for B4?
**A.** Km: 29 ± 3 µM; kcat: 3.27 ± 0.18 s⁻¹; kcat/Km: 114000 ± 20000 M⁻¹ s⁻¹

**Q.** B5 was tested. Which Km did it give?
**A.** 22 ± 2 µM

**Q.** And the kcat?
**A.** 4.25 ± 0.16 s⁻¹

**Q.** And the kcat/Km?
**A.** 195000 ± 8000 M⁻¹ s⁻¹
